Laboratory results from patent US7084111 (UNIVERSITY OF FLORIDA RESEARCH FOUNDATION, dated 2006).
One block for each binder: values may come before it. Bridges are numbered along the chain shown (N, C = ends). Where no end group is shown, it is not given here. [ ]: non-standard residue; d: D form. Nle = CCCC[C@H](N)C(=O)O; Dap = NC[C@H](N)C(=O)O

Tests used:
Test in all cases: cell-based or functional assay
[1] = molecular target: T1, mouse melanocortin-1 receptor (mouse, UniProt Q01727 1-315)
[2] = molecular target: T2, mouse melanocortin-3 receptor (mouse, UniProt P33033 1-323)
T2 sequence (P33033 whole entry): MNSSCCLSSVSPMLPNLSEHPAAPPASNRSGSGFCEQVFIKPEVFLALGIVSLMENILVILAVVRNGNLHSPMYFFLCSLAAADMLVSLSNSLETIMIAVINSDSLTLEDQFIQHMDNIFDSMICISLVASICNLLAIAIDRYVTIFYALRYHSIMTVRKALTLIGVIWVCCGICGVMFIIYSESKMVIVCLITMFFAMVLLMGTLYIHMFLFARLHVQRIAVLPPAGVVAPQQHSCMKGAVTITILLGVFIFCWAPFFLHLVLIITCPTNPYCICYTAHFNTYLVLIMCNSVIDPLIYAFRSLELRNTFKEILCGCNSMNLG

[3] = molecular target: mouse melanocortin-5 receptor (mouse, UniProt P41149 1-325)
Sequence of mouse melanocortin-5 receptor (P41149 whole entry): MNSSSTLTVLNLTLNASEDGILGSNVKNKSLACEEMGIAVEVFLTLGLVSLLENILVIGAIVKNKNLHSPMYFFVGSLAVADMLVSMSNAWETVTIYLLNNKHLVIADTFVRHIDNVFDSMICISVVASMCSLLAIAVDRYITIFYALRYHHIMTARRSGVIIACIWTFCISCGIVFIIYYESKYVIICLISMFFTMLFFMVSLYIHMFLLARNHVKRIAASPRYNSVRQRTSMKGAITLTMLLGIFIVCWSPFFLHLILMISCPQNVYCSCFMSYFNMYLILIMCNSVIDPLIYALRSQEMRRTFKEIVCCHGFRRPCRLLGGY

[4] = molecular target: mouse melanocortin-4 receptor (mouse, UniProt P56450 1-332)
Sequence of mouse melanocortin-4 receptor (P56450 whole entry): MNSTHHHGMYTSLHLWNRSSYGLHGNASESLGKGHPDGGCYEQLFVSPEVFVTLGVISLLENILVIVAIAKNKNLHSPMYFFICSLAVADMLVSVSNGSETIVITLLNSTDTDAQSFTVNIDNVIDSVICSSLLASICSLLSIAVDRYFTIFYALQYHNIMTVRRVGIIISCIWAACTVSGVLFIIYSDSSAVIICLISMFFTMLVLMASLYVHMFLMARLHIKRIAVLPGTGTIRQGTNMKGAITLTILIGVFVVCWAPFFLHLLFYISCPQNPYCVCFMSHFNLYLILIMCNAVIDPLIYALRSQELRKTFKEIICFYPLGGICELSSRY

[5] = molecular target: T1, mouse melanocortin-1 receptor; remark: listed apart in the source
[6] = molecular target: T2, mouse melanocortin-3 receptor; remark: listed apart in the source

T1 sequence (Q01727 whole entry): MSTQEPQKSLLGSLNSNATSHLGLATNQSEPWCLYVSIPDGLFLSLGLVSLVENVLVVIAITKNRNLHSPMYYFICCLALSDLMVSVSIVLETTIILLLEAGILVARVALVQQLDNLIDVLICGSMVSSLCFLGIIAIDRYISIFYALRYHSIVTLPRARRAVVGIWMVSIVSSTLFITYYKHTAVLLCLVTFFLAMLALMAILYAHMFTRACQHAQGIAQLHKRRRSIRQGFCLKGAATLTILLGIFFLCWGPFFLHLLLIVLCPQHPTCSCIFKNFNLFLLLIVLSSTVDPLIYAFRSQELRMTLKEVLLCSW

EC50 (agonist) [1]: > 100 µM | EC50 (agonist) [2]: > 100 µM | EC50 (agonist) [3]: > 100 µM | EC50 (agonist) [4]: > 100 µM
B1: SEQ ID NO:12 (Ac-Ser-Tyr-Ser-Nle-Glu-His-Ala-Ala-Ala-Gly-Lys-Pro-Val) (peptide)
peptide: Ac-SYS[Nle]EHAAAGKPV-NH2
SMILES: CCCC[C@H](NC(=O)[C@H](CO)NC(=O)[C@H](Cc1ccc(O)cc1)NC(=O)[C@H](CO)NC(C)=O)C(=O)N[C@@H](CCC(=O)O)C(=O)N[C@@H](Cc1c[nH]cn1)C(=O)N[C@@H](C)C(=O)N[C@@H](C)C(=O)N[C@@H](C)C(=O)NCC(=O)N[C@@H](CCCCN)C(=O)N1CCC[C@H]1C(=O)N[C@H](C(N)=O)C(C)C

EC50 (agonist) [1]: 0.0599 µM | EC50 (agonist) [2]: 0.48 µM | EC50 (agonist) [3]: 0.327 µM | EC50 (agonist) [4]: 0.93 µM
B2: SEQ ID NO:15 (Ac-Ser-Tyr-Ser-Nle-Glu-His-Arg-Phe-Phe-Gly-Lys-Pro-Val) (peptide)
peptide: Ac-SYS[Nle]EHRFFGKPV-NH2

EC50 (agonist; Partial agonist) [1]: 7.22 µM | EC50 (agonist; Partial agonist) [2]: 20.5 µM | EC50 (agonist; Partial agonist) [3]: 24.4 µM | EC50 (agonist) [4]: > 100 µM
B3: SEQ ID NO:14 (Ac-Ser-Tyr-Ser-Nle-Glu-His-Phe-Phe-Arg-Gly-Lys-Pro-Val) (peptide)
peptide: Ac-SYS[Nle]EHFFRGKPV-NH2
SMILES: CCCC[C@H](NC(=O)[C@H](CO)NC(=O)[C@H](Cc1ccc(O)cc1)NC(=O)[C@H](CO)NC(C)=O)C(=O)N[C@@H](CCC(=O)O)C(=O)N[C@@H](Cc1c[nH]cn1)C(=O)N[C@@H](Cc1ccccc1)C(=O)N[C@@H](Cc1ccccc1)C(=O)N[C@@H](CCCNC(=N)N)C(=O)NCC(=O)N[C@@H](CCCCN)C(=O)N1CCC[C@H]1C(=O)N[C@H](C(N)=O)C(C)C

EC50 (agonist) [1]: 1.96 µM | pA2 (antagonist) [2]: 6.2 | EC50 (agonist) [3]: > 100 µM | pA2 (antagonist) [4]: 6.2
B4: SEQ ID NO:11 (Ac-Ser-Tyr-Ser-Nle-Tyr-c[Asp-Arg-Phe-Phe-Asn-Ala-Phe-Dpr]-Tyr-Lys-Pro-Val) (peptide)
peptide: Ac-SYS[Nle]YDRFFNAF[Dap]YKPV-NH2
modifications: lactam 6-13
SMILES: CCCC[C@H](NC(=O)[C@H](CO)NC(=O)[C@H](Cc1ccc(O)cc1)NC(=O)[C@H](CO)NC(C)=O)C(=O)N[C@@H](Cc1ccc(O)cc1)C(=O)N[C@H]1CC(=O)NC[C@@H](C(=O)N[C@@H](Cc2ccc(O)cc2)C(=O)N[C@@H](CCCCN)C(=O)N2CCC[C@H]2C(=O)N[C@H](C(N)=O)C(C)C)NC(=O)[C@H](Cc2ccccc2)NC(=O)[C@H](C)NC(=O)[C@H](CC(N)=O)NC(=O)[C@H](Cc2ccccc2)NC(=O)[C@H](Cc2ccccc2)NC(=O)[C@H](CCCNC(=N)N)NC1=O

EC50 (agonist; Partial agonist) [1]: 19.9 µM | EC50 (agonist) [2]: > 100 µM | EC50 (agonist) [3]: > 100 µM | EC50 (agonist) [4]: > 100 µM
B5: SEQ ID NO:13 (Ac-Ser-Tyr-Ser-Nle-Glu-Phe-Phe-Arg-Gly-Lys-Pro-Val) (peptide)
peptide: Ac-SYS[Nle]EFFRGKPV-NH2
SMILES: CCCC[C@H](NC(=O)[C@H](CO)NC(=O)[C@H](Cc1ccc(O)cc1)NC(=O)[C@H](CO)NC(C)=O)C(=O)N[C@@H](CCC(=O)O)C(=O)N[C@@H](Cc1ccccc1)C(=O)N[C@@H](Cc1ccccc1)C(=O)N[C@@H](CCCNC(=N)N)C(=O)NCC(=O)N[C@@H](CCCCN)C(=O)N1CCC[C@H]1C(=O)N[C@H](C(N)=O)C(C)C

agonist potency, fold change against SEQ ID NO:15 [5]: 8 fold | fold decrease in agonist potency, fold change against SEQ ID NO:15 [6]: 13 fold | EC50 (agonist) [1]: 0.00728 µM | EC50 (agonist) [2]: 6.21 µM | EC50 (agonist) [3]: 0.45 µM
B6: SEQ ID NO:17 (Ac-Ser-Tyr-Ser-Nle-Glu-His-Arg-DPhe-Phe-Gly-Lys-Pro-Val-NH2) (peptide)
peptide: Ac-SYS[Nle]EHR[dF]FGKPV-NH2
SMILES: CCCC[C@H](NC(=O)[C@H](CO)NC(=O)[C@H](Cc1ccc(O)cc1)NC(=O)[C@H](CO)NC(C)=O)C(=O)N[C@@H](CCC(=O)O)C(=O)N[C@@H](Cc1c[nH]cn1)C(=O)N[C@@H](CCCNC(=N)N)C(=O)N[C@H](Cc1ccccc1)C(=O)N[C@@H](Cc1ccccc1)C(=O)NCC(=O)N[C@@H](CCCCN)C(=O)N1CCC[C@H]1C(=O)N[C@H](C(N)=O)C(C)C

EC50 (agonist) [1]: > 100 µM | EC50 (agonist) [2]: > 100 µM | EC50 (agonist) [3]: > 100 µM | EC50 (agonist) [4]: > 100 µM
B7: SEQ ID NO:19 (Ac-Nle-c[Asp-His-Ala-Ala-Ala-Lys]) (peptide)
peptide: Ac-[Nle]DHAAAK-NH2
modifications: lactam 2-7
SMILES: CCCC[C@H](NC(C)=O)C(=O)N[C@H]1CC(=O)NCCCC[C@@H](C(N)=O)NC(=O)[C@H](C)NC(=O)[C@H](C)NC(=O)[C@H](C)NC(=O)[C@H](Cc2c[nH]cn2)NC1=O

fold decrease in agonist potency, fold change against SEQ ID NO:3 [5]: 8 fold | EC50 (agonist) [1]: 13.3 µM | EC50 (agonist) [3]: 100 µM | EC50 (agonist) [4]: > 100 µM
B8: SEQ ID NO:8 (Tyr-c[Asp-His-Arg-Phe-Phe-Asn-Ala-Phe-Dpr]-Tyr) (peptide)
peptide: YDHRFFNAF[Dap]Y-NH2
modifications: lactam 2-10; N-terminus assumed
SMILES: C[C@@H]1NC(=O)[C@H](CC(N)=O)NC(=O)[C@H](Cc2ccccc2)NC(=O)[C@H](Cc2ccccc2)NC(=O)[C@H](CCCNC(=N)N)NC(=O)[C@H](Cc2c[nH]cn2)NC(=O)[C@@H](NC(=O)[C@@H](N)Cc2ccc(O)cc2)CC(=O)NC[C@@H](C(=O)N[C@@H](Cc2ccc(O)cc2)C(N)=O)NC(=O)[C@H](Cc2ccccc2)NC1=O

EC50 (agonist; Partial agonist) [1]: 38.3 µM | EC50 (agonist) [2]: > 100 µM | EC50 (agonist) [3]: > 100 µM | EC50 (agonist) [4]: > 100 µM
B9: SEQ ID NO:20 (Ac-Nle-c[Asp-His-Arg-Phe-Phe-Lys]) (peptide)
peptide: Ac-[Nle]DHRFFK-NH2
modifications: lactam 2-7
SMILES: CCCC[C@H](NC(C)=O)C(=O)N[C@H]1CC(=O)NCCCC[C@@H](C(N)=O)NC(=O)[C@H](Cc2ccccc2)NC(=O)[C@H](Cc2ccccc2)NC(=O)[C@H](CCCNC(=N)N)NC(=O)[C@H](Cc2c[nH]cn2)NC1=O
